Assay results taken from patent US20140087995A1 (published 2014).
Numbering of substitutions follows the chain as printed. Numbered stars: 1 amine (or outer) side, 2 acyl side, 3 side chain; on linkers, the order of the positions; unused ones are H or OH. Bridge positions count the residues as written; N and C are the ends. Side chains are listed from the residue outwards. Ends that are not written are not given here. * marks the point of attachment. C20 diacid = O=C(O)CCCCCCCCCCCCCCCCCCC(=O)*; γGlu = O=C(O)[C@H](CCC(=O)[*:2])N[*:1]; AEEA = NCCOCCOCC(=O)O

T1: human amylin receptor (amylin 3(a) receptor: human calcitonin receptor plus RAMP-3) (human, UniProt P30988 25-474; O60896 24-148, limits assumed)
T1 construct: whole, on cells; the functional assay (Assay IIa) used the whole cells; also called hAmylin-R; hAmylinR
T1 sequence (looked up) 1: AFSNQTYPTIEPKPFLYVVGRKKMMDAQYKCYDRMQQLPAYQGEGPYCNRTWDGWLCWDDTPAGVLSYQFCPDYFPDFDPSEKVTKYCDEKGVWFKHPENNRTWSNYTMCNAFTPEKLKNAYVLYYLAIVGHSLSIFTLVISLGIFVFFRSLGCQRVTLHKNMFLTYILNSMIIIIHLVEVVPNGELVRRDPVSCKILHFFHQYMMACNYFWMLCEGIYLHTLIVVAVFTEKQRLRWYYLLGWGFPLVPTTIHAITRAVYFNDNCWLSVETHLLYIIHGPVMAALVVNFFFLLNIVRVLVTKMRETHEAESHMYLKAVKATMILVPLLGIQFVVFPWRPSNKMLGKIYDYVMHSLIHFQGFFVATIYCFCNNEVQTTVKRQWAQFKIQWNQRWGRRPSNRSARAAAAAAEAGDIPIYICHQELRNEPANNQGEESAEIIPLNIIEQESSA
T1 sequence (looked up) 2: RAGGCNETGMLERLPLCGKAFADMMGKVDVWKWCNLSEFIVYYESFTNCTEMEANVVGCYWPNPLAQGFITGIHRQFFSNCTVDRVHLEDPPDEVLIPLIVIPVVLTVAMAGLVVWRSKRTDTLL

T2: human calcitonin receptor (human, UniProt P30988 25-474)
T2 construct: whole, on cells; Used as cell membranes prepared from the transfected BHK cells (Assay VII), not as intact cells; also called hCTR; hCT
T2 sequence (looked up): T1 sequence (looked up) 1

T3: human calcitonin receptor (human, UniProt P30988 25-474)
T3 sequence (looked up): T1 sequence (looked up) 1

T4: human amylin receptor (human calcitonin receptor co-expressed with RAMP-3; amylin 3(a) receptor) (human, UniProt P30988 25-474; O60896 24-148, limits assumed)
T4 construct: whole, on cells; Used as cell membranes prepared from Amylin 3(a)/CRE-luc BHK cells (Assay V), not as intact cells; also called hAmylin-R; hAmylinR
T4 sequence (looked up) 1: T1 sequence (looked up) 1
T4 sequence (looked up) 2: T1 sequence (looked up) 2

B1: N^α1-[(4S)-4-carboxy-4-(19-carboxynonadecanoylamino)butanoyl]-[Glu14,Arg17,Pro21,Pro27]-h-amylin (peptide)
peptide: KCNTATCATQRLAEFLRHSSPNFGAIPSSTNVGSNTY
modifications: C20 diacid-gGlu on the alpha amino group of the N-terminal residue; Cys2-Cys7 disulfide and C-terminal amide as in human amylin
notes: also called compound 9
B2: N^α1-[2-[2-[2-[[2-[2-[2-[[(4S)-4-carboxy-4-(19-carboxynonadecanoylamino)butanoyl]amino]ethoxy]ethoxy]acetyl]amino]ethoxy]ethoxy]acetyl]-[Arg17,Pro21,Pro27]-h-am … (peptide)
peptide: B1 peptide with E14N
modifications: C20 diacid-gGlu-2xOEG on the alpha amino group of the N-terminal residue; Cys2-Cys7 disulfide and C-terminal amide as in human amylin
notes: also called compound 24
B3: N^α1-[(4S)-4-carboxy-4-(19-carboxynonadecanoylamino)butanoyl]-[Arg17,Pro21,Pro27,Pro34,Glu35]-h-amylin (peptide)
peptide: {C20 diacid-γGlu}-KCNTATCATQRLANFLRHSSPNFGAIPSSTNVGPETY-NH2
modifications: disulfide 2-7
SMILES: CC[C@H](C)[C@H](NC(=O)[C@H](C)NC(=O)CNC(=O)[C@H](Cc1ccccc1)NC(=O)[C@H](CC(N)=O)NC(=O)[C@@H]1CCCN1C(=O)[C@H](CO)NC(=O)[C@H](CO)NC(=O)[C@H](Cc1c[nH]cn1)NC(=O)[C@H](CCCNC(=N)N)NC(=O)[C@H](CC(C)C)NC(=O)[C@H](Cc1ccccc1)NC(=O)[C@H](CC(N)=O)NC(=O)[C@H](C)NC(=O)[C@H](CC(C)C)NC(=O)[C@H](CCCNC(=N)N)NC(=O)[C@H](CCC(N)=O)NC(=O)[C@@H](NC(=O)[C@H](C)NC(=O)[C@@H]1CSSC[C@H](NC(=O)[C@H](CCCCN)NC(=O)CC[C@H](NC(=O)CCCCCCCCCCCCCCCCCCC(=O)O)C(=O)O)C(=O)N[C@@H](CC(N)=O)C(=O)N[C@@H]([C@@H](C)O)C(=O)N[C@@H](C)C(=O)N[C@@H]([C@@H](C)O)C(=O)N1)[C@@H](C)O)C(=O)N1CCC[C@H]1C(=O)N[C@@H](CO)C(=O)N[C@@H](CO)C(=O)N[C@H](C(=O)N[C@@H](CC(N)=O)C(=O)N[C@H](C(=O)NCC(=O)N1CCC[C@H]1C(=O)N[C@@H](CCC(=O)O)C(=O)N[C@H](C(=O)N[C@@H](Cc1ccc(O)cc1)C(N)=O)[C@@H](C)O)C(C)C)[C@@H](C)O
notes: also called compound 29
B4: N^α1-[(4S)-4-carboxy-4-(19-carboxynonadecanoylamino)butanoyl]-[Arg17,Pro21,Pro27,Lys35]-h-amylin (peptide)
peptide: B1 peptide with E14N, N35K
modifications: C20 diacid-gGlu on the alpha amino group of the N-terminal residue; Cys2-Cys7 disulfide and C-terminal amide as in human amylin
notes: also called compound 34
B5: N^α1-[2-[2-[2-[[2-[2-[2-[[(4S)-4-carboxy-4-(19-carboxynonadecanoylamino)butanoyl]amino]ethoxy]ethoxy]acetyl]amino]ethoxy]ethoxy]acetyl]-[Glu14,Arg17,Pro21,Pro27 … (peptide)
peptide: {C20 diacid-γGlu-AEEA-AEEA}-KCNTATCATQRLAEFLRHSSPNFGAIPSSTNVGSNTP-NH2
modifications: disulfide 2-7
SMILES: CC[C@H](C)[C@H](NC(=O)[C@H](C)NC(=O)CNC(=O)[C@H](Cc1ccccc1)NC(=O)[C@H](CC(N)=O)NC(=O)[C@@H]1CCCN1C(=O)[C@H](CO)NC(=O)[C@H](CO)NC(=O)[C@H](Cc1c[nH]cn1)NC(=O)[C@H](CCCNC(=N)N)NC(=O)[C@H](CC(C)C)NC(=O)[C@H](Cc1ccccc1)NC(=O)[C@H](CCC(=O)O)NC(=O)[C@H](C)NC(=O)[C@H](CC(C)C)NC(=O)[C@H](CCCNC(=N)N)NC(=O)[C@H](CCC(N)=O)NC(=O)[C@@H](NC(=O)[C@H](C)NC(=O)[C@@H]1CSSC[C@H](NC(=O)[C@H](CCCCN)NC(=O)COCCOCCNC(=O)COCCOCCNC(=O)CC[C@H](NC(=O)CCCCCCCCCCCCCCCCCCC(=O)O)C(=O)O)C(=O)N[C@@H](CC(N)=O)C(=O)N[C@@H]([C@@H](C)O)C(=O)N[C@@H](C)C(=O)N[C@@H]([C@@H](C)O)C(=O)N1)[C@@H](C)O)C(=O)N1CCC[C@H]1C(=O)N[C@@H](CO)C(=O)N[C@@H](CO)C(=O)N[C@H](C(=O)N[C@@H](CC(N)=O)C(=O)N[C@H](C(=O)NCC(=O)N[C@@H](CO)C(=O)N[C@@H](CC(N)=O)C(=O)N[C@H](C(=O)N1CCC[C@H]1C(N)=O)[C@@H](C)O)C(C)C)[C@@H](C)O
notes: also called compound 20
B6: N^ε1-[(4S)-4-carboxy-4-(19-carboxynonadecanoylamino)butanoyl]-[His14,Arg17,Pro21,Pro27,Pro31]-h-amylin (peptide)
peptide: K([γGlu-C20 diacid])CNTATCATQRLAHFLRHSSPNFGAIPSSTPVGSNTY-NH2
modifications: disulfide 2-7; N-terminus assumed
SMILES: CC[C@H](C)[C@H](NC(=O)[C@H](C)NC(=O)CNC(=O)[C@H](Cc1ccccc1)NC(=O)[C@H](CC(N)=O)NC(=O)[C@@H]1CCCN1C(=O)[C@H](CO)NC(=O)[C@H](CO)NC(=O)[C@H](Cc1c[nH]cn1)NC(=O)[C@H](CCCNC(=N)N)NC(=O)[C@H](CC(C)C)NC(=O)[C@H](Cc1ccccc1)NC(=O)[C@H](Cc1c[nH]cn1)NC(=O)[C@H](C)NC(=O)[C@H](CC(C)C)NC(=O)[C@H](CCCNC(=N)N)NC(=O)[C@H](CCC(N)=O)NC(=O)[C@@H](NC(=O)[C@H](C)NC(=O)[C@@H]1CSSC[C@H](NC(=O)[C@@H](N)CCCCNC(=O)CC[C@H](NC(=O)CCCCCCCCCCCCCCCCCCC(=O)O)C(=O)O)C(=O)N[C@@H](CC(N)=O)C(=O)N[C@@H]([C@@H](C)O)C(=O)N[C@@H](C)C(=O)N[C@@H]([C@@H](C)O)C(=O)N1)[C@@H](C)O)C(=O)N1CCC[C@H]1C(=O)N[C@@H](CO)C(=O)N[C@@H](CO)C(=O)N[C@H](C(=O)N1CCC[C@H]1C(=O)N[C@H](C(=O)NCC(=O)N[C@@H](CO)C(=O)N[C@@H](CC(N)=O)C(=O)N[C@H](C(=O)N[C@@H](Cc1ccc(O)cc1)C(N)=O)[C@@H](C)O)C(C)C)[C@@H](C)O
notes: also called compound 62
B7: N^ε1N^ε1-[(4S)-4-carboxy-4-(19-carboxynonadecanoylamino)butanoyl]-[His14,Arg17,Pro21,Pro27,Pro34]-h-amylin (peptide)
peptide: K([γGlu-C20 diacid])CNTATCATQRLAHFLRHSSPNFGAIPSSTNVGPNTY-NH2
modifications: disulfide 2-7; N-terminus assumed
SMILES: CC[C@H](C)[C@H](NC(=O)[C@H](C)NC(=O)CNC(=O)[C@H](Cc1ccccc1)NC(=O)[C@H](CC(N)=O)NC(=O)[C@@H]1CCCN1C(=O)[C@H](CO)NC(=O)[C@H](CO)NC(=O)[C@H](Cc1c[nH]cn1)NC(=O)[C@H](CCCNC(=N)N)NC(=O)[C@H](CC(C)C)NC(=O)[C@H](Cc1ccccc1)NC(=O)[C@H](Cc1c[nH]cn1)NC(=O)[C@H](C)NC(=O)[C@H](CC(C)C)NC(=O)[C@H](CCCNC(=N)N)NC(=O)[C@H](CCC(N)=O)NC(=O)[C@@H](NC(=O)[C@H](C)NC(=O)[C@@H]1CSSC[C@H](NC(=O)[C@@H](N)CCCCNC(=O)CC[C@H](NC(=O)CCCCCCCCCCCCCCCCCCC(=O)O)C(=O)O)C(=O)N[C@@H](CC(N)=O)C(=O)N[C@@H]([C@@H](C)O)C(=O)N[C@@H](C)C(=O)N[C@@H]([C@@H](C)O)C(=O)N1)[C@@H](C)O)C(=O)N1CCC[C@H]1C(=O)N[C@@H](CO)C(=O)N[C@@H](CO)C(=O)N[C@H](C(=O)N[C@@H](CC(N)=O)C(=O)N[C@H](C(=O)NCC(=O)N1CCC[C@H]1C(=O)N[C@@H](CC(N)=O)C(=O)N[C@H](C(=O)N[C@@H](Cc1ccc(O)cc1)C(N)=O)[C@@H](C)O)C(C)C)[C@@H](C)O
notes: also called compound 67

Biological target: T1, human amylin receptor (amylin 3(a) …)
Assay: SPA competition binding, membranes of Amylin 3(a)/CRE-luc BHK cells, displacement of 125I-rat amylin (Assay V)
Procedure: The binding assay was performed using scintillation proximity assay (SPA) beads (RPNQ0001) from PerkinElmer and cell membranes from the Amylin 3(a)/CRE-luc cells (as described in Assay (II)) were used. Membranes were prepared in the following way; the cells were rinsed with PBS and incubated with Versene for approximately 5 min before harvesting. The cells were flushed with PBS and the cell-suspension was centrifuged for 5 min at 1000 rpm. Cells were homogenized (ultrathurrax) in a buffer containing 20 mM Na-HEPES and 10 mM EDTA (pH 7.4) and centrifuged at 20.000 rpm for 15 min. The resulting pellet was resuspended, homogenized and centrifuged (20.000 rpm, 15 min) in a buffer containing 20 mM Na-HEPES and 0.1 mM EDTA (pH 7.4, buffer 2). The resulting pellet was resuspended in buffer 2 and protein concentration was measured (BCA protein Assay, Pierce). The homogenate was kept cold during the whole procedure. The membranes were kept at −80° C. until use. The assay was performed in a 384 well Optiplate (PerkinElmer) in a total volume of 40 ul. Membranes were mixed with SPA beads. Final concentration of membranes 35 ng/μL final and SPA beads was 0.05 mg/well. Test-compounds were dissolved in DMSO and further diluted in assay buffer (50 mM Hepes, pH 7.4, 1 mM CaCl2, 5 mM MgCl₂, 0.1% OA and 0.02% Tween20). […] The final mixture was incubated with shaking at 400 rpm for 120 min at 25° C. prior to centrifugation (1500 rpm, 10 min). Samples were analyzed on TopCounter™ (Packard). The IC₅₀ was calculated using (one site binding competition analysis) GraphPad Prism5 as a measure of receptor affinity.

| IC50 | Binder |
| --- | --- |
| 0.143 nM | B1 |
| 1.14 nM | B2 |
| 0.577 nM | B3 |
| 1.14 nM | B4 |
| 0.217 nM | B5 |

Biological target: T2, human calcitonin receptor
Assay: SPA competition against 125I-calcitonin, membranes with human calcitonin receptor (Assay VII)
Summary of the method: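 BHK hCTR membranes 35 ng/μL + SPA beads 0.05 mg/well; buffer 50 mM Hepes pH 7.4, 1 mM CaCl2, 5 mM MgCl₂, 0.1% OA, 0.02% Tween20. 120 min, 25° C., shaking. Scintillation count; IC50 by one-site binding competition.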

| IC50 | Binder |
| --- | --- |
| 6.17 nM | B6 |
| 4.63 nM | B7 |

Biological target: T1, human amylin receptor (amylin 3(a) …)
Assay: cell-based or functional assay

| hAmylin-R funct. EC50 | Binder |
| --- | --- |
| 0.175 nM | B1 |
| 0.433 nM | B2 |
| 0.099 nM | B3 |
| 0.313 nM | B4 |
| 0.08 nM | B5 |

Biological target: T3, human calcitonin receptor
Assay: cell-based or functional assay

| Ratio hCT/hAmylin funct. (hCTR EC50 against hAmylin-R EC50) | hCTR funct. EC50 | Binder |
| --- | --- | --- |
| 7.4 | 1.29 nM | B1 |
| 23.1 | 10 nM | B2 |
| 8.7 | 0.857 nM | B3 |
| 8.4 | 2.62 nM | B4 |
| 3.6 | 0.285 nM | B5 |

Biological target: T4, human amylin receptor (human calcitonin …)
Assay: ratio of hCTR binding IC50 to hAmylin-R binding IC50 (reference: human calcitonin receptor)
Summary of the method: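 Scintillation proximity competition binding on cell membranes at 35 ng/μL with SPA beads, in 50 mM Hepes pH 7.4, 1 mM CaCl2, 5 mM MgCl₂, 0.1% OA, 0.02% Tween20. Incubated 120 min at 25° C with shaking. IC₅₀ from one-site competition fit.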

| Ratio hCT/hAmylin binding | Binder |
| --- | --- |
| 63 | B6 |
| 51.6 | B7 |
